The text below walks through data of the nanobody polyreactivity screen of Harvey et al. (2022).

The nature of the data set: yeast display, Sf9 membrane polyspecificity reagent, FACS + sequencing; frameworks hold sequencing errors. The method in brief:
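Nanobodies from a synthetic yeast display library (Saccharomyces cerevisiae BJ5465), induced 36–48 hours with galactose, were stained 1 hour at 4 °C with 10% biotinylated, detergent-solubilized Sf9 membrane reagent, enriched on streptavidin microbeads, then FACS-sorted. Anti-HA (expression) and streptavidin (reagent binding) fluorescence set low and high (top ~1%) gates. Polyreactivity labels come from the gate of origin. Genes were colony-PCR amplified, MiSeq 2 × 250 sequenced and filtered by CDR length.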
Regarding “QVQLVESGGGLVQAGGSLRLSCADSGSTFYPYAMGWYRQAPGKEREFVAAISRGGTTTYYADSVKGRFTISRDNAKNTVYLQMNSLKPEDTAVYYCAARYVSVYRWTYDYWGQGTQVTVSS”, the “polyreactivity (PSR sort gate)” value is listed as “high polyreactivity”.

“QVQLVESGGGLVQAGGSLRLSCAASGPTFAKNTMGWYRQAPGKERELVAAISWRGGRTYYADSVKGRFTISRDNAKNTVYLQMNSLKPEDTAVYYCAAASTIHRHGMDYWGQGTQVTVSS”: the “polyreactivity (PSR sort gate)” value is “high polyreactivity”.

“QVQLVESGGGLVQPGGSLRLSCAASGSTFIEYSMGWYRQAPGKERELVATIRGTGSTNYADSVKGRFTISRDNAKNTVYLQMNSLKPEDTAVYYCMKKPDPRWYYWGDYWGQGTQVTVSS”: the “polyreactivity (PSR sort gate)” value is on record as “low polyreactivity”.

Take “QVQLVESGGGLVQAGGSLRLICAASGSIFPPYAMGWYRQAPGKDREFVAAITISGDSTYYADSVKGRFTISRDNAKNTVYLQMNSLKPEDTAVYYCNADSYAFQYTWGEAYYGLYGYWGQGTQVTVSS”: the “polyreactivity (PSR sort gate)” value is reported as “low polyreactivity”.

As to “QVQLVESGGGLVQAGGSLRLSCAASGSIFRYYAMGWYRQAPWKERELVADISSGGSTYYADSVKGRFTISRDNAKNTVNLQMISQKPEDTAVYYCNDDYYAYPWTNDYWGQGTQVTVTS”, the “polyreactivity (PSR sort gate)” value is on record as “high polyreactivity”.

As for “QVQLVESGGGLVQAGGSLRLSCAASGLILVPNTMGWYRQAPGKERELVAAISYSGGGTYYADSVKGRFTISRDNAKNTVYLQMNSLKAEDTAVYYCAAYVKRESAPYGYWGHGTQVTVSS”, the “polyreactivity (PSR sort gate)” value was “low polyreactivity”.

Consider “QVQLVESGRGLVQEGGSLRLSCAASGFTFYGYAMGWYRQAPGKERELVAAINSGGRTYYADSVKGRFTISRDNAKNSVYLQMNSLKPEDTAVYYCAAVSLYTSDYYWGQGTQVTVSS”, for which the “polyreactivity (PSR sort gate)” value is listed as “high polyreactivity”.

In the case of “QVQLVESGGGLFQAGGSLRLSCAASGSTFDVNTMGGYRQAPGKERELVAAIRLRGGSTYYADSVKGRFTISRYNAKNTVYLQMNSLKPEDTAVYYCAARYPWVYYDFDYWGQGTQVTVSS”, the “polyreactivity (PSR sort gate)” value is reported as “low polyreactivity”.

Take “QVQLVESGGGLVQAGGSLRLSCAASGFIFNRNAMGWYRQAPGKERELVAGINSGGTTKYADSVKGRFTISRDNAKNTVYLQMISLIPEDTAVYYCAKPLNYRYYVGYPLDYWGQGTQVTVSS”: the “polyreactivity (PSR sort gate)” value is “low polyreactivity”.

As for “QVQLEESGGGVVQAGGSLRLSCAASGSILGISAMGWYRPAPGKERALVAAIRTSSGSTYYADSVKVRFTISRDNAKNTVYFQMNSLKPEDTAVYSCAAYAFRYTPYYSWGQGTQVTVSS”, the “polyreactivity (PSR sort gate)” value is listed as “high polyreactivity”.

With “QVQLVESGGGLVQAGGSLRLSCAASGRTFFVYAMGWYRQAPGKERELVASITLSRGSTYYADSVKGRFTISRDNAKNTCYLQMNSLKPEDTAVYYCSKGWSRDNDREREDEYWGQGTQVTVSS”, the “polyreactivity (PSR sort gate)” value is “low polyreactivity”.

With “KVQLVESGGGLVQAGGSLRLSCDASGSTFQYYTMGWYRQAPGKESELVAAISADGGNTYYADSVKGRFTISRDNAKNTVYLQMNSLKPEDTAVYYCNADVSLTLRTLVPGRAYDYWGQGTQVTVSS”, the “polyreactivity (PSR sort gate)” value is on record as “low polyreactivity”.

With “QVQLVESGGGLVQAGGSLRLSCAASGSPFGYYAMGWYRQATGKERELVAAITRSGGRTYYADSVKGRFTISRDNAKNTVYLQMNSLKPEDTAVYYCAADRVRRPSPGGMDFWGQGTQVTVSS”, the “polyreactivity (PSR sort gate)” value was “high polyreactivity”.

Turning to “QVQLVESGGGLVQAGGSLRLSCAASGITFYDYAMGWYRQAPGKERELVAAINSSGVRTYYADSVKGRFTISRDNAKNTVYLQMNSLKPEVTAVYYCAAVRRGPYISRSDMDYYWGQGTQVTVSS”, the “polyreactivity (PSR sort gate)” value is “high polyreactivity”.

As to “QVQLVESGGGLVQAGGSLRLSCAASGIIFTYAMGWYRQAPGKERELVAAIDWRGGRTYYADSVKGRFTISRDNAKNNVYLQMNSLKPEDTAVFFCAARLPGGTYYWGQGTQVTVSS”, the “polyreactivity (PSR sort gate)” value was “high polyreactivity”.

In the case of “QFQLVESGGGLVQAGGSLRLSCAASGRIFIIYAMGWYRQAPGKERELVAAINRGATTNFADSVKGRFTISRDNAKNTVYLQMNSLKPEDTAVYYCAACSGPSLSRFLRYANDYWGQGTQVTLSS”, the “polyreactivity (PSR sort gate)” value was “high polyreactivity”.

For “QVQLVESGGGLVQAGGSLRLSCAASGSTFAFNAMGWYRPAPGKERELVASISGSGSSTYYADSVKGRFTISRDNAKNTVYLQMNSLKPEDTAVYYCAARVGARVSPPRRHGRFNYWGQGTQVTVSS”, the “polyreactivity (PSR sort gate)” value is recorded as “high polyreactivity”.

For “QVQLVESGGGLVQAGGSLRLSCAASGSIFTFYAMGWYRQAPGKERELVATINRIGGNTYYADSVKGRFTISRDNAKNTVYFQMNSLKPEDTAVYYCAADRSAWGSNWETQFDYWGQGTQVTVSS”, the “polyreactivity (PSR sort gate)” value is reported as “low polyreactivity”.

For “QVQLVESGGGLVQAGGSLRISCAASGSTFSQYTMGWYRQAPGKERELVAAITWSGGRTYYADSVKGRFTISRDNAKNTVYLQMNSLKPEDTAVYYCNRDISGSSGGELDYWGQGTQVTVSS”, the “polyreactivity (PSR sort gate)” value is “low polyreactivity”.

In the case of “QVQLVESGGGLVQAGGSLRLSCAASGRIFNYYAMGWYRQAPGKERELVAAISSGGSTYYADSVKGRFTISRDNAKNTVYLQMNSLKPEDTAVYYCAAAYGDYGYWGQGTQVTVSS”, the “polyreactivity (PSR sort gate)” value is on record as “high polyreactivity”.

With “QVQLVESGGGLVQAGGSLRLSCAASGSTFTRYAMGWYRQAPGKEREFVAAINWSGTSTYYADSVKGRFTISRDTAKNTVYLQMNSLKPEDTAVYYCNAYTVRSYRFDYWGQGTQVTVSS”, the “polyreactivity (PSR sort gate)” value is reported as “high polyreactivity”.

Consider “QVQLVESGGGLVQAGASLRLSCAASGYIYPKYGMGWYIQAPGKERELVAAITGSGGSTYYADSVMGRITISRDNAKNTVYLHMNSLKPEDTAVYYCAKRSWIEYDYWGQGTQVTVSS”, for which the “polyreactivity (PSR sort gate)” value was “low polyreactivity”.

With “QVQLVESGGGLVQAGGSLRLSCAASGSTFSTNVMGWYRQAPGKERELVAAISTIGGSTYADSVKGRFTISRDNAKNTVYLQMNSLKPEDTAVYYCAAVFRVRRKTYGYWGQGTQVTVSS”, the “polyreactivity (PSR sort gate)” value is on record as “high polyreactivity”.

With “QVQLVESGGGLVQAGGSLRLSCAPSGRTFYSYAMGWYRHAPGKERELGAAITSSGGSTYYADSVKGRFTISRDNAKNTVYLQMNSLKPEDTAVYDCAAGKPYSSYWSWGYWTNLEDDYWGQGTQVNVSS”, the “polyreactivity (PSR sort gate)” value is “high polyreactivity”.

As to “QDLLVESGGGLVQAGGSLRLRCAASGITFAFYTMGWYRQAPGKPSELVTAISYSGGRTYNADSVKGRFTISRDNAKYTVYVQMLSLKPEDTAVYYCNTRYRGSYDYWGQGTQVTVSS”, the “polyreactivity (PSR sort gate)” value is “high polyreactivity”.

For “QVQLVESGGGLVQAGGSLRLSCAASGRIFLWYTMGWYRQAPGKERELVASITRGGTTNYADSVKGRFTISRDNAKNTVYLQMNSLKPEDTAVYYFNVAYTWCQSTTSWYDIHYYWGQGSQVTVSS”, the “polyreactivity (PSR sort gate)” value was “high polyreactivity”.

Take “QVQLVESGGGLVQAGGSLRLSCAASGINFRGYAMGWYRQAPGKERELVASITNTDSTYYADSVKGRFTISRDNAKNTVYLQMNSLKPEDTAVYYCAARRGRKYGYWGQGTQVTVSS”: the “polyreactivity (PSR sort gate)” value is listed as “high polyreactivity”.

As for “QVQLVESGGGLVQAGGSLRLSCAASGNIFVVNAMGWYRQAPGKERELVAGITTNGGRTFYADSVKGRFTISRDNAKNTVYLQINSLKPEDTAVYYWNARHGRHRRTRFAKYDYWGQGTQVTVSS”, the “polyreactivity (PSR sort gate)” value is reported as “high polyreactivity”.

Turning to “QVQLVESGGGLVQAGGSLRLSCAPSGTIFYSYAMGWYRQAPGKERELVAAISQRGGSTYYADSVKGRFTISRDNAKNTVYLQMNSLKPEDTAVYYCNAVYRRAQFLYGYDYWGQGTQVTVSS”, the “polyreactivity (PSR sort gate)” value was “high polyreactivity”.

As for “QVQLVESGGGLVEAGGSLRLSCAASGINFWVNAMGWYRQAPGKERELVAAIRSDGSTKYADSVKGRFSSSRDNAKNTVYLQMNSLKPEDTAIYYCAKRDFSYPWLRDFYYWGQGTQVTVSS”, the “polyreactivity (PSR sort gate)” value is “low polyreactivity”.

With “QVQLVESGGGLVEAGGSLRLSCAASGSILIYVMGWYRQAPGKERDLFASITFSGGSTYYADSVKGRFTISRDNAKNSVYLQMYRLKPEVTAVYYCAAVPLWDYKFFYYLLYDYWGQGTQVTVSS”, the “polyreactivity (PSR sort gate)” value was “low polyreactivity”.

With “QVQLVESGGGLVQAGGSLRLSCAASGRTFPGNAMGWYRQAPGKERELVATISSGGTTYYADSVKGRFTISRDNAKNTVYLQMNSLKPEDTAVYYCATDTYHHKADYEYWGQGTQVSVSS”, the “polyreactivity (PSR sort gate)” value is given as “low polyreactivity”.

Regarding “QVQLVESGGGLVQAGGSLRLSCAASGRIFTYYAMGWYRQAPGKERELVAGISGSGTSTYYADSVKGRFTISRDNAKNTVYLQMNSLKPEDTAVYYCAAIRRQNGLWDYYYWGQGTQVTVSS”, the “polyreactivity (PSR sort gate)” value is listed as “low polyreactivity”.

“QVQLVESGGGLVQAGGSLRISCAASGSTLGYYAMGWYRPAPAKESELVAAISRGGGSTYYADSVKGRFTISRDNAKNTVYLQMNSLKPEVTAVYYCNKYFAYGDFDYWGQGTQVTVSS”: the “polyreactivity (PSR sort gate)” value is “high polyreactivity”.

In the case of “QVQLEESGGGLVQAGGSLRLSCAASGSICWLYAMGWYRQAPGKERELVAAIDSGDSTKYADSVKGRFTISRDNAKNTVYLQMNSLIPEDTAVYYCNASRRYHVRAPYDYWGQGTQVTVSS”, the “polyreactivity (PSR sort gate)” value is given as “low polyreactivity”.

Turning to “QVQLVESGGGLVQAGGSLRLTCAASAFTFKLYVMGWYRHATGKERQFDAGITKRGGRTYYADSVKGRFTISRDNAKNTFYLQMNSLKPEDTAVYYCSAGTRIYNSCIRFDYWGQGTQVTVSS”, the “polyreactivity (PSR sort gate)” value was “high polyreactivity”.

For the sequence “QVQLVESGGGVVQAGGSLRLSCAASGYTFLPYAMGWYRQAPGNARELVAAITVRGGRTYDADAVKGRFTISRHNAKKTVYLQMNSLKPEDTAVYYCHTDAYRLGYDYWGPGTQVTVSS”, the “polyreactivity (PSR sort gate)” value is on record as “high polyreactivity”.

Take “QVQLVESRGGLVQAGGSLRLSCPASGSTFVSNAMGWYRQAPGKERELVAAISKSGGSTYYADSVKGRFTISRDNAKNTVYLQMISLKPEDTAVYYCAKYNAKSFYGQYDYWGQGTQVTVSS”: the “polyreactivity (PSR sort gate)” value is “high polyreactivity”.

As for “QVQLVESGGGLVQAGGSLRLSCAASGSIFFYYAMGWYSQAPGTERELVAAIRNGGSTKYADSVKGRFTISRDNAKNTVYLQMNSLKPEDTAVYYCAAGYPVTRRTIRFDYWGQGTQVTVSS”, the “polyreactivity (PSR sort gate)” value is listed as “high polyreactivity”.

Take “QVQLVESGGGLVQAGGSLRLSCAASGRTFPGNAMGWYRQAPGKERELVATISSGGTTNYADSVKGRFTISRDNAKTTVYLQMNSLKPEDTAVYYCATDTYHHKADYEYWGKGTQVTVSS”: the “polyreactivity (PSR sort gate)” value is “low polyreactivity”.
